From PMC8532158

Legend:
Assay in all cases: yeast surface display affinity sorting with deep sequencing (deep mutational scanning); BPTI single and double mutant library on yeast, sorted by FACS into four affinity gates (HI, WT, SL, LO) for each protease; NGS enrichments converted into ΔΔG_bind by a normalization formula fitted on ΔΔG_bind values of purified proteins
[1] = molecular target: BPTI K15A displayed on the yeast surface (bovine)
[2] = molecular target: BPTI A16S displayed on the yeast surface (bovine)
[3] = molecular target: BPTI K15R displayed on the yeast surface (bovine)

## bovine trypsin (enzyme)
[1]
  ΔΔG bind against BPTI WT: 11.1 kcal/mol
[2]
  ΔΔG bind against BPTI WT: 4.5 kcal/mol
[3]
  ΔΔG bind against BPTI WT: -1.4 kcal/mol
